Reference: US20240150440A1 (LUMEN BIOSCIENCE, published 2024)
Positions count from the first letter of the chain named. Names may count otherwise.

B1: PP1147 MBP-5HVZ-PAPA-R5a-B7-H6 (VHH)
VHH: QVQLVESGGGLVQPGGSLRLSCAASGAFFSYGAIHWFRQAPGKQREEVAAITSGGSTGYADSVKGRFTISRDNAKNTVYLQMNSLKPEDTAVYYCNAGVVWLPSNAAYNLWGQGTQVTVSS
notes: Form: Dimer
B2: PP903 MBP-5HVZ-R1i-A11-H6 (VHH)
VHH: QVQLVESGGGLVQPGGSLRLSCAASGSILQINAIHWFRQAPGKQREEVAAITSGGSTGYADSVKGRFTISRDNAKNTVYLQMNSLKPEDTAVYYCAATSTRGGLDSDYWGQGTQVTVSS
notes: Form: Dimer
B3: PP900 MBP-5HVZ-R5a-F2-H6 (VHH)
VHH: QVQLVESGGGLVQPGGSLRLSCAASGSISSIEAMSWFRQAPGKQREGVATMASGGDTSYADSVKGRFTISRDNAKNTVYLQMNSLKPEDTAVYYCAAQTYRPDTWGRYTFWGQGTQVTVSS
notes: Form: Dimer
B4: PP1103 MBP-5HVZ-PAPA-RN-18-H6 (VHH)
VHH: QVQLVESGGGLVQPGGSLRLSCAASGYYFQIVAMHWYRQAPGKEREGVAGITSTGSTYYGDSVKGRFTISRDNAKNTVYLQMNSLKPEDTAVYYCNAVSTDAQGAAEYWGQGTQVTVSS
notes: Form: Dimer
B5: PP1143 MBP-5HVZ-PAPA-R2b-D5-H6 (VHH)
VHH: QVQLVESGGGLVQPGGSLRLSCAASGYADEINMVHWYRQAPGKGREFVAAIASGGSTFYADSVKGRFTISRDNAKNTVYLQMNSLKPEDTAVYYCAAIPRPSLSYAHDYAYWGQGTQVTVSS
notes: Form: Dimer
B6: PP1146 MBP-5HVZ-PAPA-R2d-D3-H6 (VHH)
VHH: QVQLVESGGGLVQPGGSLRLSCAASGHIFSINNAAWVRQAPGKSREGVATIHSGGGTYYSDSVKGRFTISRDNAKNTVYLQMNSLKPEDTAVYYCNAEVSTGAGSRGRVSDVYWGQGTQVTVSS
notes: Form: Dimer
B7: PP1151 MBP-5HVZ-PAPA-R5d-B5-H6 (VHH)
VHH: QVQLVESGGGLVQPGGSLRLSCAASGSRDSIVAMHWYRQAPGKGREGVAGITSRWVTYYADSVKGRFTISRDNAKNTVYLQMNSLKPEDTAVYYCNAPVYYDTEWYDIWGQGTQVTVSS
notes: Form: Dimer
B8: PP1152 MBP-5HVZ-PAPA-R5d-B6-H6 (VHH)
VHH: QVQLVESGGGLVQPGGSLRLSCAASGRILAANIVHWYRQAPGKEREGVAGITSGGGSYYADSVKGRFTISRDNAKNTVYLQMNSLKPEDTAVYYCNALGLGQSSLYRSADPYDSWGQGTQVTVSS
notes: Form: Dimer
B9: PP1131 MBP-4B0F-PAPA-R2b-D5-H6 (VHH)
VHH: B5 VHH
notes: Form: Heptamer
B10: PP1135 MBP-4B0F-PAPA-R5a-B7-H6 (VHH)
VHH: B1 VHH
notes: Form: Heptamer
B11: PP1136 MBP-4B0F-PAPA-R5a-C5-H6 (VHH)
VHH: B2 VHH with S27D, L29F, Q30S, I34L, T98Q, S99Q, T100A
notes: Form: Heptamer
B12: PP1155 MPB-scTRP-PAPA-R2b-D5-H6 (VHH)
VHH: B5 VHH
notes: Form: Trimer
B13: PP1159 MPB-scTRP-PAPA-R5a-B7-H6 (VHH)
VHH: B1 VHH
notes: Form: Trimer
B14: PP899 MBP-5HVZ-R5a-B5-H6 (VHH)
VHH: QVQLVESGGGLVQPGGSLRLSCAASGDDFIENAISWYRQAPGKGREWVAAVTLGGHSNYADSVKGRFTISRDNAKNTVYLQMNSLKPEDTAVYYCNYPVGIPAVAIDGRRSYGYWGQGTQVTVSS
notes: Form: Dimer
B15: PP847 MBP-R5E-D1-H6 (VHH)
VHH: QVQLVESGGGLVQPGGSLRLSCAASGFEFSTSAMHWYRQAPGKQREWVARITSGGSDNYGDSVKGRFTISRDNAKNTVYLQMNSLKPEDTAVYYCAAYVGTDNYGYDYWGQGTQVTVSS
notes: Form: Monomer
B16: PP848 MBP-R5E-G2-H6 (VHH)
VHH: QVQLVESGGGLVQPGGSLRLSCAASGTIKSINAMHWFRQAPGKAREFVASIGSNGAKSYSDSVKGRFTISRDNAKNTVYLQMNSLKPEDTAVYYCTALITVAESDDYDYWGQGTQVTVSS
notes: Form: Monomer
B17: PP1897 Cerberbody (3-S3b-C8) (other, not shown: large carriers)
chain 1: QVQLVESGGGLVQPGGSLRLSCAASGSIENIERMHWYRQAPGKQRELVAVIDSGGTTRYADSVKGRFTISRDNAKNTVYLQMNSLKPEDTAVYYCAAVWLTNAESTQEYWGQGTQVTVSSHHHHHH
chain 2: QVQLVESGGGLVQPGGSLRLSCAASGSIENIERMHWYRQAPGKQRELVAVIDSGGTTRYADSVKGRFTISRDNAKNTVYLQMNSLKPEDTAVYYCAAVWLTNAESTQEYWGQGTQVTVSSTVILEYAHRLSQDILSDALQQWASHHHHHHHH
B18: MBP-R2B-D5-H6 (VHH)
VHH: B5 VHH
notes: monomer
B19: dimeric VHH (VHH-5HVZ-MBP) R2B-E6 (VHH)
VHH: QVQLVESGGGLVQPGGSLRLSCAASGGVTRGNAMAWYRQAPGKQREIVAAIDNGGSHAYGDSVKGRFTISRDNAKNTVYLQMNSLKPEDTAVYYCAVFPDHDSEQASIDRVYWGQGTQVTVSS
B20: MBP-5HVZ-R5D-B5-H6 (VHH)
VHH: B7 VHH
notes: dimer
B21: MBP-5HVZ-R5D-B6-H6 (VHH)
VHH: B8 VHH
notes: dimer

The binders below were run against T1, SARS-CoV-2 Alpha Variant RBD (SARS-CoV-2 Alpha variant) (assay: ELISA, RBD coated).
T1 construct: domain: RBD; coated on ELISA plates

Row | Binder | EC50
1 | B1 | 0.33 nM
2 | B2 | 0.28 nM
3 | B3 | 34 nM
4 | B4 | 1.45 nM

Each binder was assayed against T2, SARS-CoV-2 Beta Variant RBD (SARS-CoV-2 Beta variant) (assay: ELISA, RBD coated).
T2 construct: domain: RBD; coated on ELISA plates

Row | Binder | EC50
5 | B3 | 709 nM
6 | B4 | 227 nM

These binders were tested against T3, SARS-CoV-2 Gamma Variant RBD (SARS-CoV-2 Gamma variant) (assay: ELISA, RBD coated).
T3 construct: domain: RBD; coated on ELISA plates

Row | Binder | EC50
7 | B3 | 340 nM
8 | B4 | 92.8 nM

What follows are binders tested against T4, SARS-CoV-2 Delta Variant RBD (SARS-CoV-2 Delta variant) (assay: ELISA, RBD coated).
T4 construct: domain: RBD; coated on ELISA plates

Row | Binder | EC50
9 | B1 | 0.49 nM
10 | B2 | 0.26 nM
11 | B4 | 2.69 nM

These binders were tested against T5, SARS-CoV-2 spike protein on pseudotyped lentivirus (Wuhan Reference Pseudovirus) (SARS-CoV-2, UniProt P0DTC2 14-1273) (assay: cell-based or functional assay).

Row | Binder | infectivity % under 10 ug/mL VHH treatment
12 | B5 | 0.09%
13 | B6 | 32.8%
14 | B1 | 1.79%
15 | B2 | 38.4%
16 | B7 | 35.6%
17 | B8 | 4.64%
18 | B9 | -0.01%
19 | B10 | -0.03%
20 | B11 | 1.53%
21 | B12 | 0.01%
22 | B13 | 17.7%
23 | B14 | 2.43%
24 | B3 | 18.3%
25 | B4 | 57.6%
26 | B15 | 77.1%
27 | B16 | 81.9%

Molecular target: T5, SARS-CoV-2 spike protein on pseudotyped …
Test: cell-based or functional assay
Remark: another data set of the same source

Row | Binder | Pseudovirus neutralization IC50
28 | B5 | 0.301 nM
29 | B6 | 36.2 nM
30 | B1 | 12.3 nM
31 | B2 | 56.7 nM
32 | B7 | 15.3 nM
33 | B8 | 3.87 nM
34 | B9 | 0.93 nM
35 | B10 | 0.533 nM
36 | B11 | 0.05 nM
37 | B12 | 0.634 nM
38 | B13 | 31.9 nM
39 | B14 | 2.29 nM
40 | B3 | 29.6 nM

These binders were tested against SARS-CoV-2 Delta Variant spike protein on pseudotyped lentivirus (SARS-CoV-2 Delta variant) (assay: cell-based or functional assay).

Row | Binder | Pseudovirus neutralization IC50
41 | B6 | 4.17 nM
42 | B1 | 1.13 nM
43 | B4 | 2.49 nM
44 | B17 | 0.09 nM

Each binder was assayed against SARS-CoV-2 Gamma Variant spike protein on pseudotyped lentivirus (SARS-CoV-2 Gamma variant) (assay: cell-based or functional assay).

Row | Binder | Pseudovirus neutralization IC50
45 | B5 | 3.13 nM
46 | B6 | 6.62 nM

Molecular target: T5, SARS-CoV-2 spike protein on pseudotyped …
Test: cell-based or functional assay
Remark: another data set of the same source

Row | Binder | Pseudovirus inhibition IC50
47 | B5 | 0.6 nM
48 | B9 | 0.89 nM
49 | B12 | 1.9 nM
50 | B18 | 176 nM
51 | B19 | 358 nM

Molecular target: T5, SARS-CoV-2 spike protein on pseudotyped …
Test: cell-based or functional assay
Remark: another data set of the same source

Row | Binder | Pseudovirus inhibition IC50 [Cont. 1]
52 | B6 | 77 nM

Molecular target: T5, SARS-CoV-2 spike protein on pseudotyped …
Test: cell-based or functional assay
Remark: another data set of the same source

Row | Binder | Pseudovirus inhibition IC50 [Cont. 2]
53 | B11 | 0.35 nM

Molecular target: T5, SARS-CoV-2 spike protein on pseudotyped …
Test: cell-based or functional assay
Remark: another data set of the same source

Row | Binder | Pseudovirus inhibition IC50 [Cont. 4]
54 | B7 | 43.7 nM
55 | B8 | 0.85 nM
56 | B20 | 3.25 nM
57 | B21 | 3.26 nM

Molecular target: T5, SARS-CoV-2 spike protein on pseudotyped …
Test: cell-based or functional assay
Remark: another data set of the same source

Row | Binder | Pseudovirus inhibition IC50 [Cont. 6] | Pseudovirus inhibition IC50 (second row with the same construct name) [Cont. 6]
58 | B1 | 0.44 nM | 
59 | B2 | 50.4 nM | 
60 | B10 | 2.13 nM | 
61 | B13 | 7.98 nM | 215 nM
62 | B14 | 5.25 nM | 
63 | B3 | 59.3 nM | 

The binders below were run against T6, recombinant SARS-CoV-2 RBD with C-terminal AviTag (SARS-CoV-2, UniProt P0DTC2 319-541) (assay: ELISA, competition with coated ACE2-Fc for RBD [Cont. 4]).

Row | Binder | IC50
64 | B20 | 53.7 nM
65 | B21 | 15.7 nM

These binders were tested against T6, recombinant SARS-CoV-2 RBD with … (assay: ELISA, competition with coated ACE2-Fc for RBD [Cont. 5]).

Row | Binder | IC50
66 | B15 | 2.9 nM
67 | B16 | 2.1 nM
